Measurements from paper PMC4598300.

Biological target: tag-free PTEN (human) (UniProt P60484)
Assay: SEC-SAXS

tag-free PTEN, P60484 1-403 (enzyme; other documents disagree on this pair)
stoichiometry N: 2
